Data taken from US20240398911A1.

Columns and labels:
Assay in all cases: BLI, sACE22-IgG1 immobilized, RBD-8h analyte
[1] = molecular target: 8his-tagged RBD of the S protein of bat coronavirus isolate LYRa11 (bat coronavirus LYRa11)
[2] = molecular target: 8his-tagged RBD of the S protein of bat coronavirus isolate Rs4084 (bat coronavirus Rs4084)
[3] = molecular target: 8his-tagged RBD of the S protein of bat coronavirus isolate Rs4231 (bat coronavirus Rs4231)
[4] = molecular target: 8his-tagged RBD of the S protein of bat coronavirus isolate Rs7327 (bat coronavirus Rs7327)
[5] = molecular target: 8his-tagged RBD of the S protein of bat coronavirus isolate RsSHC014 (bat coronavirus RsSHC014)

## wild type dimeric sACE22 (a.a. S19-G732) fused to the Fc of human IgG1 (from UniProt Q9BYF1 19-732) (Fc fusion)
[1]
  Kd: 91 nM
  koff: 0.079 s⁻¹
  kon: 870000 M⁻¹ s⁻¹
[2]
  Kd: 85 nM
  koff: 0.025 s⁻¹
  kon: 290000 M⁻¹ s⁻¹
[3]
  Kd: 69 nM
  koff: 0.022 s⁻¹
  kon: 320000 M⁻¹ s⁻¹
[4]
  Kd: 63 nM
  koff: 0.04 s⁻¹
  kon: 640000 M⁻¹ s⁻¹
[5]
  Kd: 29 nM
  koff: 0.026 s⁻¹
  kon: 880000 M⁻¹ s⁻¹
